We go through five substances from patent US7879792.

In assay [1] the target is human γ-thrombin (human) (UniProt P00734). As to the kind of experiment: inhibition of γ-thrombin hydrolysis of Sar-Pro-Arg-paranitroanilide; Ki from Ki,app by the procedure of Bieth.
For assay [2], the target named is recombinant extracellular domain of human PAR4 (rPAR4EC), Gly18-Arg78 (human) (UniProt Q96RI0). As to the kind of experiment: displacement of 15 µM RPPGFK-biotin from plate-bound rPAR4EC; peptide at 300 µM.
Assay [3] has the same target. As to the kind of experiment: displacement of 15 µM RPPGFK-biotin from plate-bound rPAR4EC; peptide at 1000 µM.
Assay [4] has the same target. As to the kind of experiment: displacement of 15 µM RPPGFK-biotin from plate-bound rPAR4EC; peptide at 30 µM.
The target of assay [5] is human α-thrombin (human) (UniProt P00734). Briefly: cell-based or functional assay.
For assay [6] the target is unchanged. Briefly: inhibition of α-thrombin hydrolysis of Sar-Pro-Arg-paranitroanilide; Ki from Ki,app by the procedure of Bieth.

Regarding “rOicPaF(p-Br) (D-Arg-Oic-Pro-D-Ala-Phe(p-Br)) (peptide)”, in assay [1], the Ki was 48.7 µM.
As for “rOicPaF(p-I) (D-Arg-Oic-Pro-D-Ala-Phe(p-I)) (peptide)”, the Ki in assay [1] was 59.2 µM.
Turning to “rOicPaF(p-Me) (D-Arg-Oic-Pro-D-Ala-Phe(p-Me)) (peptide)”, the % of RPPGFK-biotin displaced in assay [2] worked out at 49%; in assay [3], 63%; in assay [4] it was 19%. Besides, in assay [1], the Ki was determined as 54.3 µM.
“rOicPaF(p-NO2) (D-Arg-Oic-Pro-D-Ala-Phe(p-NO2)) (peptide)” came in with a Ki in assay [1] of 87.9 µM. In addition, in assay [5], the peptide concentration giving significant prolongation (p<0.05) of the APTT of normal human plasma is 50 µM, the peptide concentration giving significant prolongation (p<0.05) of the PT of normal human plasma came out at 6.25 µM and the peptide concentration giving significant prolongation (p<0.05) of the TCT of normal human plasma is 1.56 µM. This substance showed a Ki in assay [6] of 10.6 µM.
“rOicPsF(p-Me) (D-Arg-Oic-Pro-D-Ser-Phe(p-Me)) (peptide)” returned a Ki in assay [1] of 42.2 µM.
